Data on one molecule can be found in patent US20050002917A1 (UNIVERSITY OF MASSACHUSETTS, published 2005).

This assay addresses T1, 35S-methionine-luciferase (in vitro translated from the Promega luciferase control plasmid) (UniProt P08659 1-550 = luciferase, 35S-methionine label).
T1 construct: Control protein in the pull-down; also called control protein luciferase
Put plainly: GST pull-down of 35S-labelled protein on glutathione-Sepharose 4B beads, SDS/PAGE and autoradiography. Here is the method:
The CaM kinase II domain of mCASK-C cDNA was amplified by PCR and cloned in frame into SmaI of pGEX-2T and transformed into E. coli BL21 cells. […] For pull-down assays, radiolabeled Acheron and luciferase was produced from pET-25b(+)-Acheron and luciferase controlled plasmid (Promega) by using in vitro TNT Quick Coupled Transcription/Translation System (Promega) with ³⁵S-methionine as the sole source of methionine, following the manufacture's instructions. 5 μl of ³⁵S-methionine-Acheron and ³⁵S-methionine-luciferase were incubated with equal amount of GST or GST-mCASK-C (CaM kinase II domain) bound to glutathione-Sepharose 4B beads, respectively, under constant rocking for 45 minutes in 2 ml of NETN binding buffer. ³⁵S-methionine-luciferase and GST were used as the controls in the binding assays. The Sepharose beads were pelleted and washed extensively with the binding buffer and were analyzed by SDS/PAGE and autoradiography.
To further confirm the physical interaction between Acheron and mCASK-C, an in vitro protein binding assay was performed. […] The beads were pelleted and washed extensively and the bound protein complex was resolved by SDS/PAGE and detected by autoradiography.

T1 sequence (P08659 whole entry): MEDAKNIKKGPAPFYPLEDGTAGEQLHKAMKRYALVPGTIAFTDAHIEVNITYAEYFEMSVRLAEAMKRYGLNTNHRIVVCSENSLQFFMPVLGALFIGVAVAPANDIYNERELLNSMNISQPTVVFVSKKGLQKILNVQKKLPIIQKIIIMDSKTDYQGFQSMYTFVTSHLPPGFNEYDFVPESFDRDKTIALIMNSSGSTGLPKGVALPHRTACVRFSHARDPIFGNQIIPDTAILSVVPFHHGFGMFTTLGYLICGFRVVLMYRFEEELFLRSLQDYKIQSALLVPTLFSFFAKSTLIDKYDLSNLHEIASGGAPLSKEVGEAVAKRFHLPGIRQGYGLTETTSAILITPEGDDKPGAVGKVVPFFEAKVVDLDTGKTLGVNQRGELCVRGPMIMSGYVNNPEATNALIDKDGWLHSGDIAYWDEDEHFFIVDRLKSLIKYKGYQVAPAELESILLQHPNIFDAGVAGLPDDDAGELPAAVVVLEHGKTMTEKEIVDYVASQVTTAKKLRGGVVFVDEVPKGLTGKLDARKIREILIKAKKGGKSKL

B1: GST-mCASK-C (CaM kinase II domain from amino acid 1 to 339) (other)
chain: MADDDVLFEDVYELCEVIGKGPFSVVRRCINRETGQQFAVKIVDVAKFTSSPGLSTEDLKREASICHMLKHPHIVELLETYSSDGMLYMVFEFMDGADLCFEIVKRADAGFVYSEAVASHYMRQILEALRYCHDNNIIHRDVKPHCVLLASKENSAPVKLGGFGVAIQLGESGLVAGGRVGTPHFMAPEVVKREPYGKPVDVWGCGVILFILLSGCLPFYGTKERLFEGIIKGKYKMNPRQWSHISESAKDLVRRMLMLDPAERITVYEALNHPWLKERDRYAYKIHLPETVEQLRKFNARRKLKGAVLAAVSSHKFNSFYGDPPEELPDFSEDPTSSG
notes: Expressed in E. coli BL21 and immobilised on glutathione-Sepharose 4B beads; not shown: glutathione S-transferase from vector pGEX-2T
B1: the binding result was “no binding”.
